Reference: doi:10.1101/459164

Tests used:
[1] = molecular target: MT145 SOSIP.664 trimer (chimpanzee SIVcpzPtt MT145 Env, wild-type V2) (SIVcpzPtt (chimpanzee SIV), isolate MT145)
[2] = molecular target: MT145K SOSIP.664 trimer (chimpanzee SIVcpzPtt MT145 Env, Q171K) (SIVcpzPtt (chimpanzee SIV), isolate MT145); assay: cryo-EM structure

Substance: MT145 SOSIP.664 trimer (chimpanzee SIVcpzPtt MT145 Env, wild-type V2) (complex)
- stoichiometry N [1]: 3

Substance: MT145K SOSIP.664 trimer (chimpanzee SIVcpzPtt MT145 Env, Q171K) (complex)
- stoichiometry N [2]: 3
